According to patent US12698507B2, “Methods and compositions for conferring and/or enhancing herbicide tolerance using protoporphyrinogen IX oxidase of various cyanobacteria or variant thereof” (FarmHannong Co., Ltd., priority 2019, dated 2026):
Substitutions are numbered along the chain they refer to. Names and notes keep the numbering of the source.

B1: CyPPO19 R89A + I408R + F360M: variant of CyPPO19 PPO protein (SEQ ID NO: 1) (protein)
chain: MSEVDVAIVGGGLSGLSLAWRLQQSAPQYSVVLLEASDRLGGNITTQTAEGFVWELGPNSFAPTPALLQLIAEVGLQSELIRGDRHLPAYIYWRGQLYPLQPTRPLALATSNLLSPWGKVRAALGALGFVPPYLGSGDESVNSFFRRHLGQEVAERLVAPFVSGVYAGDPQQLSAAAAFRRIAQLEKLGGGLIAGALHLRRQQAPKPKPPTSVQMRPGELGSFKEGLAALPRAIAQQLKAPIHLQTPVQEITPDPKGGYLLRSGEQTWRARSVVLATPAYQTAELVAPFQPAIARVLATIPYPTVACVVLAYPAGLGRSVRPGFGVLIPRSQGIRTLGTIWSSCLFPQRTPAGWQVFTSMIGGATDPDLASLSEEAIVQQVQQDLNRLLDLPAAKARLLGMKVWRRARPQYMVGYPEQWQQVTHALSQTPGLFLCSNYAEGVALGDRVEHGNRTAAAVAAYLSGGQP
modifications: Synthetic_PPO of Thermosynechococcus elongatus PKUAC-SCTE542 (comprising GenBank No. CP032152.1)
B2: CyPPO19 R89A + I408W + F360V: variant of CyPPO19 PPO protein (SEQ ID NO: 1) (protein)
chain: B1 chain with M360V, R408W
modifications: Synthetic_PPO of Thermosynechococcus elongatus PKUAC-SCTE542 (comprising GenBank No. CP032152.1)
B3: CyPPO19 R89A + I408R + F360L: variant of CyPPO19 PPO protein (SEQ ID NO: 1) (protein)
chain: B1 chain with M360L
modifications: Synthetic_PPO of Thermosynechococcus elongatus PKUAC-SCTE542 (comprising GenBank No. CP032152.1)

Test system: PPO-deficient BT3 E. coli (ΔPPO)
Test: PPO-inhibiting herbicide tolerance test of PPO variants in E. coli (growth on herbicide-containing LB agar)
Assay type: cell-based
Conditions: CyPPO19 variants in BT3 (ΔPPO) E. coli; LB agar with 0 to 2,000 μM herbicide, 37° C., dark, 16-20 hours
Description: To enhance the PPO-inhibiting herbicide resistance of CyPPO19 and CyPPO18, PPO variant genes of the above example 2 were constructed. They were transformed to BT3 (ΔPPO) strain which is deficient of PPO activity and cultured in LB media with PPO-inhibiting herbicide, thereby examining whether growth of transformed BT3 was not inhibited.
BT3 competent cells were transformed with the pET303-CyPPO19 (wild type), pET303-CyPPO18 (wild type) plasmids, and those with a mutation(s) constructed (refer to example 2) via heat shock method, and were cultured in LB agar media containing ampicillin.
Single colony transformed with each CyPPO gene was cultured in 3 mL of LB broth (LPSS) containing ampicillin for more than 12 hours, and then was subcultured in LB broth until absorbance (OD600) reached 0.5 to 1. Then, it was diluted with LB broth to OD600=0.5. Again, the diluted solution was serially diluted 4 times by a factor of one tenth.
The LB agar media (LB 25 g/L, Bacto agar 12 g/L) containing ampicillin (100 μg/mL) and 0 to 2,000 μM of various herbicides were prepared. Herbicide solution stocks were all prepared in DMSO.
Then, 10 μL of each diluted solution of E. coli was dropped on the plate and cultured at 37° C. under dark for 16-20 hours. PPO-inhibiting herbicide resistance was evaluated with the extent of E. coli growth containing each gene was observed.
The extent of herbicide resistance was evaluated by the relative growth of variants to that of wild type, and listed in Tables 9 and 10 and FIGS. 3 to 32.
In Tables 9 and 10, the tolerance level of variants showing equivalent resistance to wild type was presented as ‘−’, and was done as ‘+’ per each 10-fold resistance until ‘+++++’ as maximal resistance.
FIGS. 3 to 30 and FIGS. 31 and 32 show the transformed E. coli growth result of CyPPO19 WT and its variants and CyPPO18 WT and its variants, respectively. The concentrations of herbicides were written above the photographs of tolerance test. A 10-fold dilution series of spots were shown from OD600=0.5 of the leftmost spot to OD600=0.00005 of the rightmost one.

Row | Molecule | tolerance level relative to wild type, Carfentrazone | tolerance level relative to wild type, Flumioxazin | tolerance level relative to wild type, Fomesafen | tolerance level relative to wild type, Oxyfluorfen | tolerance level relative to wild type, Saflufenacil | tolerance level relative to wild type, Sulfentrazone | tolerance level relative to wild type, Tiafenacil
1 | B1 | + (‘+’ per each 10-fold resistance) | ++++ (‘+’ per each 10-fold resistance) | +++ (‘+’ per each 10-fold resistance) | ++ (‘+’ per each 10-fold resistance) | ++++ (‘+’ per each 10-fold resistance) | +++ (‘+’ per each 10-fold resistance) | +++ (‘+’ per each 10-fold resistance)
2 | B2 | + (‘+’ per each 10-fold resistance) | +++++ (until ‘+++++’ as maximal resistance) | +++++ (until ‘+++++’ as maximal resistance) | +++ (‘+’ per each 10-fold resistance) | +++++ (until ‘+++++’ as maximal resistance) | +++++ (until ‘+++++’ as maximal resistance) | +++++ (until ‘+++++’ as maximal resistance)
3 | B3 | + (‘+’ per each 10-fold resistance) | +++ (‘+’ per each 10-fold resistance) | + (‘+’ per each 10-fold resistance) | + (‘+’ per each 10-fold resistance) | +++ (‘+’ per each 10-fold resistance) | ++ (‘+’ per each 10-fold resistance) | +++ (‘+’ per each 10-fold resistance)
